T1: APBA3_1, O96018
T1 sequence (O96018 389-490, limits assumed, looked up): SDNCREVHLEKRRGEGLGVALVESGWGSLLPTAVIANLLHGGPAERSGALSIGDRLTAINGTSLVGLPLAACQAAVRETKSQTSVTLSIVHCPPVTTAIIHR

T2: DLG3_3, Q92796
T2 sequence (Q92796 374-475, limits assumed, looked up): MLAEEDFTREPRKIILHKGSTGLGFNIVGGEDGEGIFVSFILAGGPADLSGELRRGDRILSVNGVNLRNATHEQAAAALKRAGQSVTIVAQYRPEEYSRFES

T3: LNX2_3, Q8N448
T3 sequence (Q8N448 463-564, limits assumed, looked up): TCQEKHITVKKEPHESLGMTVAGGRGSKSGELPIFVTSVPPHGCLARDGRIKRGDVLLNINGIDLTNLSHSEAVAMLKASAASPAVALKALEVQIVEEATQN

T4: LRRC7, Q96NW7
T4 sequence (Q96NW7 1440-1537, limits assumed, looked up): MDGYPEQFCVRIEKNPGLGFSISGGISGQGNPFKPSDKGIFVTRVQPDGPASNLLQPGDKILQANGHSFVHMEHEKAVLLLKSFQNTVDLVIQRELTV

T5: NHERF3_4, Q5T2W1
T5 sequence (Q5T2W1 373-468, limits assumed, looked up): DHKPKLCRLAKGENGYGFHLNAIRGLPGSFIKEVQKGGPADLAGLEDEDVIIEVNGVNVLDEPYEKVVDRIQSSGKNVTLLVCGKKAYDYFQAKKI

T6: PDZD2_2, O15018
T6 sequence (O15018 329-429, limits assumed, looked up): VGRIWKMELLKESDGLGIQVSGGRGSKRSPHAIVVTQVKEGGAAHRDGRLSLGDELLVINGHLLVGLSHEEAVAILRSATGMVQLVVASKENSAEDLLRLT

T7: PDZRN3_1, Q9UPQ7
T7 sequence (Q9UPQ7 244-349, limits assumed, looked up): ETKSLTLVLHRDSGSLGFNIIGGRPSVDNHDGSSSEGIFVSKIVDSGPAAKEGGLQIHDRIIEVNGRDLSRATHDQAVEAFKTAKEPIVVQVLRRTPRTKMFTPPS

T8: SHANK1, Q9Y566
T8 sequence (Q9Y566 658-767, limits assumed, looked up): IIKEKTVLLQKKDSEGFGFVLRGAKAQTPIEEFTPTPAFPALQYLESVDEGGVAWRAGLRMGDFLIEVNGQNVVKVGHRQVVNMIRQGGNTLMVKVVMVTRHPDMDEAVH

T9: SIPA1L2, Q9P2F8
T9 sequence (Q9P2F8 945-1036, limits assumed, looked up): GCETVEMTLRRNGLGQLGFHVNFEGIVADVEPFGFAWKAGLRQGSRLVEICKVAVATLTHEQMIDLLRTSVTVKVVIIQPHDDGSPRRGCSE


What was measured:
Experiment in all cases: holdup assay
Design in all cases: key: below the threshold = too weak to quantify, mostly under pKd 3.1 to 4
Conditions in all cases: plain residues with an end cap or a label only (N-terminal biotin on a linker: ado-ado)
AHNAK1, Q09666 = molecular target: AHNAK1, Q09666
APBA3_1, O96018 = molecular target: T1, APBA3_1, O96018
DLG3_3, Q92796 = molecular target: T2, DLG3_3, Q92796
DLG4_3, P78352 = molecular target: DLG4_3, P78352
DLG5_1, Q8TDM6 = molecular target: DLG5_1, Q8TDM6
FRMPD2_3, Q68DX3 = molecular target: FRMPD2_3, Q68DX3
FRMPD4, Q14CM0 = molecular target: FRMPD4, Q14CM0
GIPC2, Q8TF65 = molecular target: GIPC2, Q8TF65
GORASP1, Q9BQQ3 = molecular target: GORASP1, Q9BQQ3
GRID2IP_2, A4D2P6 = molecular target: GRID2IP_2, A4D2P6
IL16_3, Q14005 = molecular target: IL16_3, Q14005
Inadl_1, Q8NI35 = molecular target: Inadl_1, Q8NI35
Inadl_4, Q8NI35 = molecular target: Inadl_4, Q8NI35
Inadl_5, Q8NI35 = molecular target: Inadl_5, Q8NI35
Inadl_9, Q8NI35 = molecular target: Inadl_9, Q8NI35
LIMK2, P53671 = molecular target: LIMK2, P53671
LNX1_3, Q8TBB1 = molecular target: LNX1_3, Q8TBB1
LNX2_3, Q8N448 = molecular target: T3, LNX2_3, Q8N448
LRRC7, Q96NW7 = molecular target: T4, LRRC7, Q96NW7
MAGI1_2, Q96QZ7 = molecular target: MAGI1_2, Q96QZ7
NHERF3_4, Q5T2W1 = molecular target: T5, NHERF3_4, Q5T2W1
NHERF4_4, Q86UT5 = molecular target: NHERF4_4, Q86UT5
NOS1, P29475 = molecular target: NOS1, P29475
PDZD2_2, O15018 = molecular target: T6, PDZD2_2, O15018
PDZRN3_1, Q9UPQ7 = molecular target: T7, PDZRN3_1, Q9UPQ7
SHANK1, Q9Y566 = molecular target: T8, SHANK1, Q9Y566
SIPA1L2, Q9P2F8 = molecular target: T9, SIPA1L2, Q9P2F8
SNX27, Q96L92 = molecular target: SNX27, Q96L92
TJP1_3, Q07157 = molecular target: TJP1_3, Q07157
TJP1_3, Q07157, sequence (Q07157 416-512): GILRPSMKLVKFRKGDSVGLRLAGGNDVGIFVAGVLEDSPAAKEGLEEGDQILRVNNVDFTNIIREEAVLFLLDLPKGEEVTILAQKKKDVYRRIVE

DLG4_3, P78352, sequence (P78352 306-403): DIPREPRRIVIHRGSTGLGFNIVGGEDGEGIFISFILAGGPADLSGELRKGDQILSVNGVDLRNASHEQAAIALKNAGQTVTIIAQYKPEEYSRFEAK
LIMK2, P53671, sequence (P53671 143-248): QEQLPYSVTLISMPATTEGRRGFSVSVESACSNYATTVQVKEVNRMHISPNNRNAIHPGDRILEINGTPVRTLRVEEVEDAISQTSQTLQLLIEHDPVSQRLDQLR
FRMPD4, Q14CM0, sequence (Q14CM0 67-160): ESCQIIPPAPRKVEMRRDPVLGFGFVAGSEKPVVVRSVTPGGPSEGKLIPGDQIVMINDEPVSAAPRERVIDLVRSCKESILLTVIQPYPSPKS
FRMPD2_3, Q68DX3, sequence (Q68DX3 1073-1166): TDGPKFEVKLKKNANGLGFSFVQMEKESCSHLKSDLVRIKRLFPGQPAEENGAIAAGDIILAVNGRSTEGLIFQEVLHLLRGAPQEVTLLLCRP
MAGI1_2, Q96QZ7, sequence (Q96QZ7 456-580): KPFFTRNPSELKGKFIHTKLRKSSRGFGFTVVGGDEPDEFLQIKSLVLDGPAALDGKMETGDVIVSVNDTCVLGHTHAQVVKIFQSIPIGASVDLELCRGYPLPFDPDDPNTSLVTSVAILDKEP
DLG5_1, Q8TDM6, sequence (Q8TDM6 617-713): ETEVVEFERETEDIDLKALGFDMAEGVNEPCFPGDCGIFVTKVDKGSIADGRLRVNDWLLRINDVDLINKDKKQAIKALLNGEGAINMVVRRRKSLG
LNX1_3, Q8TBB1, sequence (Q8TBB1 500-596): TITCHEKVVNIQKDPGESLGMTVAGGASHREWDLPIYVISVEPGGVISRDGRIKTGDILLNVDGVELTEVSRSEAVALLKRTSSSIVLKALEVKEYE
Inadl_5, Q8NI35, sequence (Q8NI35 673-780): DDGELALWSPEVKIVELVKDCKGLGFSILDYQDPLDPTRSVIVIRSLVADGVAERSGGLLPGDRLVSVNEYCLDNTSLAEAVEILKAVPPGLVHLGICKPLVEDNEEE
Inadl_9, Q8NI35, sequence (Q8NI35 1530-1615): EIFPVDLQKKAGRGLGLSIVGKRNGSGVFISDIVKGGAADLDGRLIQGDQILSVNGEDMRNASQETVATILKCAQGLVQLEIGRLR
GORASP1, Q9BQQ3, sequence (Q9BQQ3 1-208): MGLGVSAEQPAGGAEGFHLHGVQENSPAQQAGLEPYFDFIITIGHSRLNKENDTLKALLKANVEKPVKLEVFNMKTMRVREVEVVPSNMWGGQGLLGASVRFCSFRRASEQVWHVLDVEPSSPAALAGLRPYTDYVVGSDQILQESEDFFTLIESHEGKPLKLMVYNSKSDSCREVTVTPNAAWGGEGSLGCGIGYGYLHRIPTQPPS
AHNAK1, Q09666, sequence (Q09666 4-100): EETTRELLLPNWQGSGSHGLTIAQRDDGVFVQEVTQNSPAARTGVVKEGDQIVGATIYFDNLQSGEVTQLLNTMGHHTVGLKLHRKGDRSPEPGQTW
GIPC2, Q8TF65, sequence (Q8TF65 112-203): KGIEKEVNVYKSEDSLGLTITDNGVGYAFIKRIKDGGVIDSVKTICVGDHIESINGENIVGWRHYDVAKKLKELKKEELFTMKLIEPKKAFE
Inadl_1, Q8NI35, sequence (Q8NI35 113-229): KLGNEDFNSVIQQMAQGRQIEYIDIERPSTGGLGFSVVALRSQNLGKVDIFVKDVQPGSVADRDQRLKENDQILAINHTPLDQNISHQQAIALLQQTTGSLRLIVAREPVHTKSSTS
GRID2IP_2, A4D2P6, sequence (A4D2P6 272-370): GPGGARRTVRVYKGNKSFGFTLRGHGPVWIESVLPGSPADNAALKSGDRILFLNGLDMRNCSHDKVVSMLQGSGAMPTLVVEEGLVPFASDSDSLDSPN
Inadl_4, Q8NI35, sequence (Q8NI35 547-651): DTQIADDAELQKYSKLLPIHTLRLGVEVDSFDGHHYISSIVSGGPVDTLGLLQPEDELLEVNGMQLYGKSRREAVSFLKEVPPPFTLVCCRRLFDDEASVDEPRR
NHERF4_4, Q86UT5, sequence (Q86UT5 464-550): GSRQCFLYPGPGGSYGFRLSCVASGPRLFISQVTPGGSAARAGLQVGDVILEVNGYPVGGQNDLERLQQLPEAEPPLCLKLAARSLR
IL16_3, Q14005, sequence (Q14005 1107-1207): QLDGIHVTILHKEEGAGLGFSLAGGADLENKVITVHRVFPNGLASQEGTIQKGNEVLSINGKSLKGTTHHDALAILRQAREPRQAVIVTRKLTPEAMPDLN
NOS1, P29475, sequence (P29475 9-101): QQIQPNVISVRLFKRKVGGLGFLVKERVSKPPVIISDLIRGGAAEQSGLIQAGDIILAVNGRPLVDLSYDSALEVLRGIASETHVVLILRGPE

Row | Binder | pKd (AHNAK1, Q09666) | pKd (APBA3_1, O96018) | pKd (DLG3_3, Q92796) | pKd (DLG4_3, P78352) | pKd (DLG5_1, Q8TDM6) | pKd (FRMPD2_3, Q68DX3) | pKd (FRMPD4, Q14CM0) | pKd (GIPC2, Q8TF65) | pKd (GORASP1, Q9BQQ3) | pKd (GRID2IP_2, A4D2P6) | pKd (IL16_3, Q14005) | pKd (Inadl_1, Q8NI35) | pKd (Inadl_4, Q8NI35) | pKd (Inadl_5, Q8NI35) | pKd (Inadl_9, Q8NI35) | pKd (LIMK2, P53671) | pKd (LNX1_3, Q8TBB1) | pKd (LNX2_3, Q8N448) | pKd (LRRC7, Q96NW7) | pKd (MAGI1_2, Q96QZ7) | other results
1 | DHLGGGGESM [TNRC6A, Q8NDV7] | below the threshold | below the threshold | below the threshold | below the threshold | below the threshold | below the threshold | below the threshold | below the threshold | below the threshold | below the threshold | below the threshold | below the threshold | below the threshold | below the threshold | below the threshold | below the threshold | below the threshold | below the threshold | below the threshold | below the threshold | pKd (NHERF3_4, Q5T2W1): below the threshold; pKd (NHERF4_4, Q86UT5): below the threshold; pKd (NOS1, P29475): below the threshold; pKd (PDZD2_2, O15018): below the threshold; pKd (PDZRN3_1, Q9UPQ7): below the threshold; pKd (SHANK1, Q9Y566): below the threshold; pKd (SIPA1L2, Q9P2F8): below the threshold; pKd (SNX27, Q96L92): below the threshold; pKd (TJP1_3, Q07157): below the threshold
2 | ALPLPQSSTC [IGF1R, P08069] | below the threshold | below the threshold | below the threshold | below the threshold | below the threshold | 3.54 | 3.54 | below the threshold | below the threshold | 3.99 | below the threshold | below the threshold | below the threshold | below the threshold | below the threshold | below the threshold | below the threshold | below the threshold | below the threshold | below the threshold | pKd (NHERF3_4, Q5T2W1): below the threshold; pKd (NHERF4_4, Q86UT5): below the threshold; pKd (NOS1, P29475): below the threshold; pKd (PDZD2_2, O15018): 4.46; pKd (PDZRN3_1, Q9UPQ7): below the threshold; pKd (SHANK1, Q9Y566): below the threshold; pKd (SIPA1L2, Q9P2F8): below the threshold; pKd (SNX27, Q96L92): below the threshold; pKd (TJP1_3, Q07157): below the threshold
3 | REKKFFCTIL [GNG4, P50150] | below the threshold | below the threshold | 4.38 | 4.17 | below the threshold | below the threshold | 4.23 | below the threshold | 5.07 | 5.07 | below the threshold | below the threshold | below the threshold | below the threshold | below the threshold | below the threshold | 3.95 | below the threshold | 3.97 | 4.92 | pKd (NHERF3_4, Q5T2W1): 5.36; pKd (NHERF4_4, Q86UT5): 3.76; pKd (NOS1, P29475): 3.81; pKd (PDZD2_2, O15018): 4.06; pKd (PDZRN3_1, Q9UPQ7): 4.14; pKd (SHANK1, Q9Y566): 5.21; pKd (SIPA1L2, Q9P2F8): 4.01; pKd (SNX27, Q96L92): 5.13; pKd (TJP1_3, Q07157): below the threshold
